Measurements published in the supplement of paper PMC9170038.

Tested on: MS2 coat protein
Assay: apparent KD of MS2 coat protein; designed switch direction (-1 OFF switch, 1 ON switch): -1; higher = weaker reporter binding
Method in brief: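 Designed RNA switches sharing common flanks were transcribed on Illumina chips by stalled E. coli RNA polymerase. They were titrated with SNAP-549-labelled MS2 coat protein, from 0.7 or 1.5 nM doubling to 3 µM, in Tris-HCl pH 7.5 buffer with KCl, MgCl2, BSA, DTT, tRNA and Tween-20. Titrations ran without input, with 200 uM small-molecule ligand, or with an oligonucleotide input. The apparent KD of each design is the median over its clusters, after curve-fitting of normalised cluster fluorescence.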

[1] = input ligand: microRNA oligo, concentration not stated
[2] = Eterna round: R95, input ligand: FMN 200 uM
[3] = Eterna round: R95, input ligand: microRNA oligo, concentration not stated
[4] = Eterna round: R95, input ligand: none

Sequence | apparent KD of MS2 coat protein (input ligand: FMN 200 uM) | apparent KD of MS2 coat protein [1] | apparent KD of MS2 coat protein (input ligand: none) | apparent KD of MS2 coat protein [2] | apparent KD of MS2 coat protein [3] | apparent KD of MS2 coat protein [4]
UUUGUUUAUGUAGGAUAUGCCUGGCGUGCCUUUGCAGAAGGACAUGAGGAUCACCCAUGUAACAUGAGGCUCACCCAUGUCGCA [salish99_ExNG1_r04_110] (Eterna round: R96, puzzle: Exclusion NG 1) | 682 nM | 453 nM | 645 nM | – | – | –
ACUUAUGCGGAGGAUAUUUAACGUAGCGAAAGUAAAGAAGGCCGAACAUGAGGAUCACCCAUGUGGAGGUGUAA [Eternabot (L1) Solution 24] (Eterna round: R97, puzzle: Exclusion 6) | 92.5 nM | – | 23 nM | – | – | –
GGAGAGGGAGGAUAUGCGCCAACAAACAUGAGGAUCACCCAUGUGGUGCUCCAAGAAAGGGUAGAAGGCCCUCUCC [Default title] (puzzle: Exclusion 5) | – | – | – | 619 nM | 275 nM | 295 nM
GGAAAGCAAGGAUAUACAAGGAGAAGGAGGAAAGUAAAAGGACAUGAGGAUCACCCAUGUAGAAGGUGCGAGAG [JR_Exclu2_Sub039] (puzzle: Exclusion 2) | – | – | – | 31.9 nM | 29 nM | 43.5 nM
UGCAAGCUUUUGAGAUCCUACAUGAGGAUCACCCAUGUGCUCGUCUUAUAACGUACUGUGACGAAAGUCACGGUACG [JL TOV1 3.97] (Eterna round: R97, puzzle: Sensor, turn-off variant 1) | 184 nM | – | 222 nM | – | – | –
UGCAUGCUAGGAUAUACGGGACAUUAGGGUUCGUCGUAUGGACAUGAGGAUCACCCAUGUAGAAGGAGCGUGCU [Mod4 of JL-ex2-2.15 mat747 mod] (puzzle: Exclusion 2) | – | – | – | – | 18.7 nM | –
UGAAAGGUAGGAUAUACGAAGAAAAAGGGUAGAAUAAUAACACAUGAGGAUCACCCAUGUAGAAGGACCAAAGG [Mat - Exclusion 2 - Mod of my Tesla design - D9] (puzzle: Exclusion 2) | – | – | – | 70.1 nM | 23.2 nM | 25.2 nM
GCCUCACAUGAGGAUCACCCAUGUCAGGAUAUACCCAUCCAGCGAAAUUAAAGCUGUAGUAGAAGGGACAUGCA [Bevebeis] (Eterna round: R97, puzzle: Exclusion 1) | 53.7 nM | – | 18.4 nM | – | – | –
AAUUAGCAAGCGAGAUCCCACAUGAGGAUCACCCAUGUGCUCGUCUUAUAUAAGGUACUGUACGAGAGUACGGUACC [Mat - Sensor, turn-off var - Eli Mod - D30] (Eterna round: R97, puzzle: Sensor, turn-off variant 1) | 12.1 nM | – | 10.6 nM | – | – | –
GGAAGGAGUGUCAGGAUAUCCGGAGGGAAACCUCCGGAGAAGGGACAUGAGGAUCACCCAUGUAGAGGAAGGAG [AK-MS2ROC-r4-Bmoexclusion4-9] (Eterna round: R97, puzzle: Brourd's mod of Exclusion 4) | 561 nM | – | 441 nM | – | – | –
ACAAGCUCUGUGGGUGGUGACAUGAGGAUCACCCAUGUUUUGCUCGUCUUGUCGGCCGGCCGGCGCCCGGCCGGCCG [-39.6, -68.5, A 12%] (Eterna round: R97, puzzle: Sensor, turn-off variant 1) | 498 nM | – | 727 nM | – | – | –
GAAUAGCGAGGAUAUGCAAUGAAGGUAGUACGAUAUGGCUGACAUGAGGAUCACCCAUGUAGAAGGCGCUGAUC [EX2 #11] (Eterna round: R97, puzzle: Exclusion 2) | 116 nM | – | 65.8 nM | – | – | –
CCGCUGCAAGGAUAUACUUGCGGUGAUGUUCGAGUUCUUCUACUUGAGGAUCACCCAAGUAGAAGGUGCAAAAC [jl-ex2.4.58 ViennaUCT mod] (Eterna round: R97, puzzle: Exclusion 2) | 19.2 nM | – | 19.3 nM | – | – | –
CCAUGUUAGCAGGAUAUGCUAUUAAUCUUUUAUGCAGAAGGGCUUACAUGAGGAUCACCCAUGUAUUAAGUCAA [JR_E6_Sub077] (puzzle: Exclusion 6) | – | – | – | – | 13.2 nM | –
AGGGAUAAAGGAUAUACAUGAGGAUCACCCAUGUUGAGGAAAGUGAGAGGUGGCGAUAGUAGAAGGUUAGGUAG [JR_Exclu3_Sub082] (puzzle: Exclusion 3) | – | – | – | 86.8 nM | 78.8 nM | 137 nM
UACAUGAGGAUCACCCAUGUUUUGUCGUGUAUGGUAUUUAUCUAGGAUAUCAAUCUAUUAAUUUAUGAGAAGGAGAAUAUUAAU [JMF's solution 52] (Eterna round: R96, puzzle: Exclusion NG 3) | – | 28.8 nM | – | – | – | –
AAGUACCGUCACGAUAGUGAUGGUACAACAAGUAGUGAAACAUGAGGAUCACCCAUGUCCUCUUUUGCUCGUCUUAU [Sensor 3 - 88] (puzzle: Sensor v3, turn-off variant 2) | – | – | – | 931 nM | 54 nM | 969 nM

Sequence | apparent KD of MS2 coat protein (input ligand: FMN 200 uM) | apparent KD of MS2 coat protein [1] | apparent KD of MS2 coat protein (input ligand: none) | apparent KD of MS2 coat protein [2] | apparent KD of MS2 coat protein [3] | apparent KD of MS2 coat protein [4]
AUGGUACAUGAGGAUCACCCAUGUUAGGAUAUCGCGUGUUCUAAAACUAAGAGAUACACGAGAAGGGACGACAU (puzzle: Exclusion 1) | – | – | – | – | 81.2 nM | –
CUUCAGUAAGGAUAUCAGCUUAGGAGGUUGGUAAUGAGAGCUGAGAAGGUACAUGAGGAUCACCCAUGUUAGUU [JL Zatite mod 8] (puzzle: Exclusion 4) | – | – | – | – | 17 nM | –
AGUGCGUAUGUGAGGAUAUGCUGGUCCUUGGAUCGGCAGAAGGCACAUGAGGAUCACCCAUGUGGUGUCGUACC [salish99_Bmod_ex4_076] (puzzle: Brourd's mod of Exclusion 4) | – | – | – | – | 136 nM | –
AAUCAUAGGUAAGGAUAUGAAGAUCUGGUGGUGACAUGAGGAUCACCCAUGUGAAAACGAUGAGAUCAGAAGGUACAAUAUGAA [AK ExNG2-4] (Eterna round: R96, puzzle: Exclusion NG 2) | 108 nM | 18 nM | 88.3 nM | – | – | –
AAGUCACAGGGAGGAUAUGUGAAAGGAAGUGUAACAGAAGGCCCAACGUAGGGCGAGACAUGAGGAUCACCCAUGUAUAAAAGA [PowerStrip EXNG 1.16] (Eterna round: R96, puzzle: Exclusion NG 1) | 28.9 nM | 20.8 nM | 25.9 nM | – | – | –
GAUUAUGCGAGCUUUAGGGACAUGAGGAUCACCCAUGUUCGUCUUGUUGAUCUAGGUACACUAACAUACCUAAAUCU [JMF 16] (puzzle: Sensor v3, turn-off variant 1) | – | – | – | 19.9 nM | 28.5 nM | 21.9 nM
GUUUUAUAUGAAGGAUAUACUUAACAUGAGGAUCACCCAUGUGGUGUUGUGAGUGAGUGAGUUUAGUAGAAGGUCAAGUAUUUU [JMF's solution 56] (Eterna round: R96, puzzle: Exclusion NG 2) | 335 nM | 231 nM | 319 nM | – | – | –
CCGGAAAUAGAGGAUAUCGUAUCGGAUACGAUACGAGAAGGCUAUACAUGAGGAUCACCCAUGUGUCCUACCGG [Fiskers Ex 6 - 56] (puzzle: Exclusion 6) | – | – | – | – | 16.1 nM | –
ACAUGAGGAUCACCCAUGUGACAAUAAUGGCUGAUACAGAGACAGGAUAUUCGUGAAUAUCUAACGAAGAAGGGUCAUGACUGG [Deportation 69 - Jieux - Exclusion NG 3] (Eterna round: R96, puzzle: Exclusion NG 3) | 37.9 nM | 45.7 nM | 51.8 nM | – | – | –
AGCUGUGGCCGAGGAUAUCUAAACCUUCAAACCGAGGUAUACUCGGACAUGAGGAUCACCCAUGUAGAGAAGGCGGUCUCAGCA [Eli eng2 - 035] (Eterna round: R96, puzzle: Exclusion NG 2) | 34.7 nM | 9.78 nM | 13.4 nM | – | – | –
AGAAUGCGAGGAUAUACAGCAAGAUAGCAAAAGACCCUCCAACAUGAGGAUCACCCAUGUAGAAGGCGCAUUCA [Eternabot (Original) Solution 19] (Eterna round: R97, puzzle: Exclusion 2) | 110 nM | – | 109 nM | – | – | –
GGGCUGCGACACAGCCCAACAAAACAUGAGGAUCACCCAUGUCAGGAUAUACCGAUGCAGCAUCUGUAGAAGGGACAGAUCCAA [Usorxe] (Eterna round: R96, puzzle: Exclusion NG 3) | 120 nM | 88.1 nM | 66.3 nM | – | – | –
AAGAAACAUGAGGAUCACCCAUGUGAGGAUAUGACGAAGAAAAGAAAAGAAAGAAGAAUCAGAAGGCACAAAGG [salish99-ex1_r3_052] (puzzle: Exclusion 1) | – | – | – | 64.1 nM | 40.8 nM | 51.6 nM
AGUAACUCAAGAGGAUAUCACAUGAGGAUCACCCAUGUAUAGCGCGCUACGCUAGUCCUCGUAUUUGAGAAGGUUUGAUAAAUG [Quve] (Eterna round: R96, puzzle: Exclusion NG 2) | 10.4 nM | 11.4 nM | 14.3 nM | – | – | –
AGCGAAAAGGCAGGAUAUGAGAAUAGAUAGAGCUCAGAAGGGCCACAUGAGGAUCACCCAUGUAAAGUCUUGAGGCUGCGUGGU [Prohibition 12 - Jieux - Exclusion NG 1] (Eterna round: R96, puzzle: Exclusion NG 1) | 488 nM | 68.4 nM | 60.4 nM | – | – | –
ACUGGAGCAGGAUAUAUAUGACGUGCUUCGGCACGGUGAGUACAUGAGGAUCACCCAUGUAGAAGGGCUCCAGU [Exclusion 2 (Mod2 of Brourd's E2/9-D2)] (Eterna round: R97, puzzle: Exclusion 2) | 88.4 nM | – | 23.4 nM | – | – | –
AGAUGGCGAGGAUAUACAUGAGGAUCACCCAUGUGAAGAUAAAGAGUGAGGAAGAAAAGUAGAAGGCGCUGUCA [Mat - Exclusion 3 - Mod of Salish D28] (Eterna round: R96, puzzle: Exclusion 3) | – | 103 nM | – | – | – | –
